Laboratory results published in paper PMC9482650, “Quantitative fragmentomics allow affinity mapping of interactomes” (Nature Communications, 2022).

Tests used:
Assay in all cases: holdup assay
Design in all cases: key: below the threshold = too weak to quantify, mostly under pKd 3.1 to 4
[1] = biological target: T1, DLG3_1, Q92796
T1 sequence (Q92796 125-227, limits assumed, looked up): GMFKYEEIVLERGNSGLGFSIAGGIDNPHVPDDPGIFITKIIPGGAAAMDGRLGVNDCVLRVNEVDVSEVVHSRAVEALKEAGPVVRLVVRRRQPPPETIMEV

[2] = biological target: DLG1_2, Q12959
[3] = biological target: T2, GRIP1_5, Q9Y3R0
T2 sequence (Q9Y3R0 568-668, limits assumed, looked up): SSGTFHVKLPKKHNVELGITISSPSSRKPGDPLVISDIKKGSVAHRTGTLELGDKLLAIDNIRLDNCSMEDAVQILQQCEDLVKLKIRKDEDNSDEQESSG

[4] = biological target: SNX27, Q96L92
[5] = biological target: PTPN3, P26045
[6] = biological target: Inadl_1, Q8NI35
[7] = biological target: NHERF4_1, Q86UT5-2
[8] = biological target: LAP2, Q96RT1
[9] = biological target: TJP2_1, Q9UDY2
[10] = biological target: PDLIM1, O00151
[11] = biological target: MAGI2_6, Q86UL8
[12] = biological target: T3, NHERF3_1, Q5T2W1
T3 sequence (Q5T2W1 4-100, limits assumed, looked up): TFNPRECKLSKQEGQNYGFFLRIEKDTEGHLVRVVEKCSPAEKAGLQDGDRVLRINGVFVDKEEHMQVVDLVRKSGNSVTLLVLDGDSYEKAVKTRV

[13] = biological target: T4, LIN7B, Q9HAP6
T4 sequence (Q9HAP6 88-185, limits assumed, looked up): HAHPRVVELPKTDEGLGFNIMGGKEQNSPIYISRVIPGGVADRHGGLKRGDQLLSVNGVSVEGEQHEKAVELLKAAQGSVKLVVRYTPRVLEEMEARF

[14] = biological target: FRMPD3, Q5JV73
[15] = biological target: NHERF2_2, Q15599
[16] = biological target: T5, PDZD2_2, O15018
T5 sequence (O15018 329-429, limits assumed, looked up): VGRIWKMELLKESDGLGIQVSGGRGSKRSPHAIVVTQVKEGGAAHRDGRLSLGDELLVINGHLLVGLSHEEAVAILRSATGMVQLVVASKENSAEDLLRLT

[17] = biological target: FRMPD2_1, Q68DX3
[18] = biological target: NHERF4_4, Q86UT5
[19] = biological target: T6, APBA1_1, Q02410
T6 sequence (Q02410 651-752, limits assumed, looked up): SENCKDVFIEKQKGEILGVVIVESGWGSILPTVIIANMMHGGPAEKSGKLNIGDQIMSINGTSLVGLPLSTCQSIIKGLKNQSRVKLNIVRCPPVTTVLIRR

[20] = biological target: T7, MPDZ_5, O75970
T7 sequence (O75970 695-796, limits assumed, looked up): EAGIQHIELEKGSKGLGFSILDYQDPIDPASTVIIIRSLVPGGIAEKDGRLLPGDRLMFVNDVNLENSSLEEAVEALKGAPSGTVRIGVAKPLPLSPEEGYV

[21] = biological target: T8, MPDZ_10, O75970
T8 sequence (O75970 1624-1722, limits assumed, looked up): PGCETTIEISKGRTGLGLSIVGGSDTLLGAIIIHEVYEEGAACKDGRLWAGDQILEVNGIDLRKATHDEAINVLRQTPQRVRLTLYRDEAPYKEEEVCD

[22] = biological target: T9, DLG3_2, Q92796
T9 sequence (Q92796 221-321, limits assumed, looked up): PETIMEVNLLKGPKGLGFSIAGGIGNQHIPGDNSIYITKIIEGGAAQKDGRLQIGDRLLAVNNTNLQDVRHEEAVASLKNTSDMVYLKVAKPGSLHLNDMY

[23] = biological target: Inadl_10, Q8NI35
[24] = biological target: TJP1_3, Q07157
[25] = biological target: PICK1, Q9NRD5
[26] = biological target: T10, NHERF3_4, Q5T2W1
T10 sequence (Q5T2W1 373-468, limits assumed, looked up): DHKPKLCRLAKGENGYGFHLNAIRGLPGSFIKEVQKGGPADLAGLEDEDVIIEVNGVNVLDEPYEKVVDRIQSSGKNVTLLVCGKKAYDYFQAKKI

[27] = biological target: T11, SIPA1L2, Q9P2F8
T11 sequence (Q9P2F8 945-1036, limits assumed, looked up): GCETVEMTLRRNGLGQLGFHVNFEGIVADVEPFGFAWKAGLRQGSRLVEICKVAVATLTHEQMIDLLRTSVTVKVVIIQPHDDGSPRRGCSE

[28] = plain residues with an end cap or a label only (N-terminal biotin on a linker: ttds)
[29] = plain residues with an end cap or a label only (N-terminal biotin on a linker: ado-ado)
[30] = plain residues with an end cap or a label only (N-terminal biotin on a linker: ahx)
[31] = plain residues with an end cap or a label only (N-terminal biotin on a linker: ado-ado, ttds)

FRMPD3, Q5JV73, sequence (Q5JV73 12-100): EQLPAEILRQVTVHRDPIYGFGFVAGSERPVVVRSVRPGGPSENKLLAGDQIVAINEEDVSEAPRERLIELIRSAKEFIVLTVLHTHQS
MAGI2_6, Q86UL8, sequence (Q86UL8 1141-1229): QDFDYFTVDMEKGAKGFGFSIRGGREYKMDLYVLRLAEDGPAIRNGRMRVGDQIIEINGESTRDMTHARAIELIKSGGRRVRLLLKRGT
DLG1_2, Q12959, sequence (Q12959 314-412): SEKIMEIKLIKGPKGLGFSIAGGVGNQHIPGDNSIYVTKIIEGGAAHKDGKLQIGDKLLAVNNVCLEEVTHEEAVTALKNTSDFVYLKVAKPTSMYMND
NHERF4_1, Q86UT5-2, sequence (Q86UT5 other isoform, or with tags, fused parts or gaps): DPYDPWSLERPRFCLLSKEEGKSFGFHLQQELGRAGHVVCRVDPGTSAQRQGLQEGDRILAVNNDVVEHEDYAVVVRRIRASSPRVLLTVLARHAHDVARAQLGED
NHERF2_2, Q15599, sequence (Q15599 142-238): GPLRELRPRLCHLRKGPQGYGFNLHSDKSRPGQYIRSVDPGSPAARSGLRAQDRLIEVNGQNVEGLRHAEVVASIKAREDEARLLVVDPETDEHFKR
TJP2_1, Q9UDY2, sequence (Q9UDY2 24-128): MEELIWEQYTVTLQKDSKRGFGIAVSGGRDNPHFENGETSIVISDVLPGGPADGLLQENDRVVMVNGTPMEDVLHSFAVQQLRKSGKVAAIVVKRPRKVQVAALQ
LAP2, Q96RT1, sequence (Q96RT1 other isoform, or with tags, fused parts or gaps): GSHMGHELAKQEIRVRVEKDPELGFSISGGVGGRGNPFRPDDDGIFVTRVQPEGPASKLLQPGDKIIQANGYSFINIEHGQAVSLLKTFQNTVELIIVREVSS
PDLIM1, O00151, sequence (O00151 1-87): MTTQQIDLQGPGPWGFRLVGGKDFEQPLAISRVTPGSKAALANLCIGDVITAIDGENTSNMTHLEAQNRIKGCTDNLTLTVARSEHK
PICK1, Q9NRD5, sequence (Q9NRD5 17-115): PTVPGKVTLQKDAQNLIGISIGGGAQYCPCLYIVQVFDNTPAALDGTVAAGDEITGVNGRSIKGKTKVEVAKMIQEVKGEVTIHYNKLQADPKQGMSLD
NHERF4_4, Q86UT5, sequence (Q86UT5 464-550): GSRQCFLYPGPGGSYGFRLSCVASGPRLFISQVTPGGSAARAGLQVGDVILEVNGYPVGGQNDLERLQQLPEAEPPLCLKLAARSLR
TJP1_3, Q07157, sequence (Q07157 416-512): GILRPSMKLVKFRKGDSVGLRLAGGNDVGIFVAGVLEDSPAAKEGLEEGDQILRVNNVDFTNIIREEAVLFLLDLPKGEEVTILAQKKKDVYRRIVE
Inadl_10, Q8NI35, sequence (Q8NI35 1673-1763): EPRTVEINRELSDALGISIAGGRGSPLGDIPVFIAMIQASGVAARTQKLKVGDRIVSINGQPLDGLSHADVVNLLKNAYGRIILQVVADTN
FRMPD2_1, Q68DX3, sequence (Q68DX3 770-861): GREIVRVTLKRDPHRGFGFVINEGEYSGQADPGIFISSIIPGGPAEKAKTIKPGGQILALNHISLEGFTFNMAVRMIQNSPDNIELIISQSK
PTPN3, P26045, sequence (P26045 505-587): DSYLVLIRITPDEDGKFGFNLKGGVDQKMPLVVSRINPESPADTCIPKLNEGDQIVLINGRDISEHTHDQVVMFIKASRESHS
Inadl_1, Q8NI35, sequence (Q8NI35 113-229): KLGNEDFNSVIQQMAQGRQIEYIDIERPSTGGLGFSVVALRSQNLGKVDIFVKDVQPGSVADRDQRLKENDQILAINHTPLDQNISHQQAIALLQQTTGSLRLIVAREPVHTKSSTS

B1: HPV82-E6, Q9IR59 (peptide)
chain: PPRQRSETQV
pKd [1, 28]: 4.12
pKd [2, 28]: 5.02
pKd [3, 28]: below the threshold
pKd [4, 28]: 4.67
pKd [5, 28]: 4.31
pKd [6, 28]: below the threshold
pKd [7, 28]: below the threshold
pKd [8, 28]: 3.45
pKd [9, 28]: 3.44
pKd [10, 28]: below the threshold
pKd [11, 28]: 3.46
pKd [12, 28]: 4.03
pKd [13, 28]: below the threshold
pKd [14, 28]: below the threshold
pKd [15, 28]: below the threshold
pKd [16, 28]: below the threshold
pKd [17, 28]: 3.5
pKd [18, 28]: below the threshold
pKd [19, 28]: below the threshold
pKd [20, 28]: below the threshold
pKd [21, 28]: below the threshold
pKd [22, 28]: 4.98
pKd [23, 28]: below the threshold
pKd [24, 28]: below the threshold
pKd [25, 28]: below the threshold
pKd [26, 28]: below the threshold
pKd [27, 28]: below the threshold

B2: DCHS2, Q6V1P9 (peptide)
chain: ELKAEDEVQI
pKd [1, 29]: below the threshold
pKd [2, 29]: below the threshold
pKd [3, 29]: below the threshold
pKd [4, 29]: below the threshold
pKd [5, 29]: below the threshold
pKd [6, 29]: below the threshold
pKd [7, 29]: below the threshold
pKd [8, 29]: below the threshold
pKd [9, 29]: below the threshold
pKd [10, 29]: below the threshold
pKd [11, 29]: below the threshold
pKd [12, 29]: below the threshold
pKd [13, 29]: 3.48
pKd [14, 29]: below the threshold
pKd [15, 29]: below the threshold
pKd [16, 29]: below the threshold
pKd [17, 29]: below the threshold
pKd [18, 29]: below the threshold
pKd [19, 29]: below the threshold
pKd [20, 29]: below the threshold
pKd [21, 29]: below the threshold
pKd [22, 29]: 3.59
pKd [23, 29]: below the threshold
pKd [24, 29]: below the threshold
pKd [25, 29]: 4.13
pKd [26, 29]: below the threshold
pKd [27, 29]: below the threshold

B3: NHERF1, O14745 (peptide)
chain: SKKNELFSNL
pKd [1, 30]: below the threshold
pKd [2, 30]: below the threshold
pKd [3, 30]: below the threshold
pKd [4, 30]: below the threshold
pKd [5, 30]: below the threshold
pKd [6, 30]: below the threshold
pKd [7, 30]: below the threshold
pKd [8, 30]: below the threshold
pKd [9, 30]: below the threshold
pKd [10, 30]: below the threshold
pKd [11, 30]: below the threshold
pKd [12, 30]: below the threshold
pKd [13, 30]: below the threshold
pKd [14, 30]: below the threshold
pKd [15, 30]: below the threshold
pKd [16, 30]: 4.38
pKd [17, 30]: below the threshold
pKd [18, 30]: below the threshold
pKd [19, 30]: below the threshold
pKd [20, 30]: below the threshold
pKd [21, 30]: below the threshold
pKd [22, 30]: below the threshold
pKd [23, 30]: below the threshold
pKd [24, 30]: below the threshold
pKd [25, 30]: below the threshold
pKd [26, 30]: below the threshold
pKd [27, 30]: below the threshold

B4: SLC15A5, A6NIM6 (peptide)
chain: SSIDLWETAL
pKd [1, 28]: 3.87
pKd [2, 28]: 4.4
pKd [3, 28]: below the threshold
pKd [4, 28]: 5.92
pKd [5, 28]: 5.4
pKd [6, 28]: below the threshold
pKd [7, 28]: 4.71
pKd [8, 28]: 4.9
pKd [9, 28]: below the threshold
pKd [10, 28]: 4.22
pKd [11, 28]: 5.08
pKd [12, 28]: 6.25
pKd [13, 28]: 4.92
pKd [14, 28]: 4.31
pKd [15, 28]: 5.41
pKd [16, 28]: 4.11
pKd [17, 28]: below the threshold
pKd [18, 28]: 4.4
pKd [19, 28]: below the threshold
pKd [20, 28]: below the threshold
pKd [21, 28]: below the threshold
pKd [22, 28]: 4.28
pKd [23, 28]: 4.17
pKd [24, 28]: below the threshold
pKd [25, 28]: below the threshold
pKd [26, 28]: 4.94
pKd [27, 28]: below the threshold

B5: KCNA4, P22459 (peptide)
chain: SNAKAVETDV
pKd [1, 31]: 4.25
pKd [2, 31]: 5.42
pKd [3, 31]: below the threshold
pKd [4, 31]: below the threshold
pKd [5, 31]: 4.53
pKd [6, 31]: below the threshold
pKd [7, 31]: below the threshold
pKd [8, 31]: 4.32
pKd [9, 31]: below the threshold
pKd [10, 31]: 3.77
pKd [11, 31]: 4.35
pKd [12, 31]: below the threshold
pKd [13, 31]: below the threshold
pKd [14, 31]: below the threshold
pKd [15, 31]: 3.59
pKd [16, 31]: 4.32
pKd [17, 31]: below the threshold
pKd [18, 31]: below the threshold
pKd [19, 31]: below the threshold
pKd [20, 31]: below the threshold
pKd [21, 31]: below the threshold
pKd [22, 31]: 5.23
pKd [23, 31]: below the threshold
pKd [24, 31]: below the threshold
pKd [25, 31]: below the threshold
pKd [26, 31]: below the threshold
pKd [27, 31]: below the threshold
